Numbering of substitutions follows the chain as printed.
B1: S0057 (antibody, V domains shown)
VH: QGQLVQSGAEVKKPGASVKVSCKASGYTFNNYGISWVRQAPGQGLEWMGWISAYNGFTRSTQKFQGRVTLTTDTSTSTAHMELRSLRSDDTAAYYCARDGGDGFDPWGQGTLVTVSS
VL: EIVLTQSPATLSLSPGERATLSCRASQSVSSFLAWYQQKPGQAPRLLIFDASNRATGIPARFSGSGSGTDFTLTISSLEPEDFAVYYCQQRSNWITFGQGTRLEIKRA
B2: S0023 (antibody, V domains shown)
VH: EVQLLESGGGLVQPGGSLRLSCAASGFTFSTFAMSWVRQAPGKGLEWVSTISGGGDSTYYADSVKGRFTISRDNSKNMMSLQMNSLRAVDTAVYYCVKGGGDEYFYYGMDVWGQGTTVTVSS
VL: DIQMTQSPSSLSASVGDRVTITCRASQGIRNDLGWYQQKPGKAPKRLIYSASSLQSGVPSRFSGSGSGTEFTLTISSLQPEDFATYYCLQHNSYPYTFGQGTPLDIKR
B3: S0042 (antibody, V domains shown)
VH: QVQLVQSGTEVKKPGASVKVSCKVSGYTLSDLSIHWVRQAPGKGLEWMGGFEPEDGEIIYAQKFQGRVIMTEDTSTDTAYMKLSSLRSEDTAVYYCATDKRYFDWLLSGFDYWGQGTLVTVSS
VL: DIQLTQSPSFLSASVGDRVTITCRASQGISSYLAWYQQKPGKAPKLLIFAASTLQSGVPSRFSGSGSGTEFTLTISSLQPEDFATYYCQRLHSYPRTFGQGTKVEIKRA
B4: S0040 (antibody, V domains shown)
VH: QVQLVQSGAEVKKPGASVKVSCKASGYTFTSYDINWVRQATGQGLEWMGWMNPNSGNTGYAQNFQGRVTMTRNTSINTAYMELSSLRSEDTAVYYCTRGGPTLVRGVIIRDAFDFWGQGTMVTVSS
VL: EIVMTQSPATLSVSPGERATLSCRASQSVSNSFAWYQQKPGQAPRLLIYGAFTRATGIPARFSGSGSGTEFTLTISSLQSEDFAVYYCQQYKTWPLTFGGGTKVEIKR
B5: S0103 (antibody, V domains shown)
VH: B4 VH with N73D, I76V, T97A, T102N
VL: B4 VL with T69I

How the values were obtained:
human siglec12 (human) [1] = molecular target: human siglec12 (human) (UniProt Q96PQ1); assay: FACS U937
human siglec12 (human) [2] = molecular target: human siglec12 (human) (UniProt Q96PQ1); assay: cell-based or functional assay
[3] = molecular target: siglec12 with C-terminal FLAG tag on Expi 293 cells (UniProt Q96PQ1); assay: flow cytometry, transfected Expi 293, 500 nM
siglec12 with C-terminal FLAG tag on Expi 293 cells, sequence (Q96PQ1 19-595): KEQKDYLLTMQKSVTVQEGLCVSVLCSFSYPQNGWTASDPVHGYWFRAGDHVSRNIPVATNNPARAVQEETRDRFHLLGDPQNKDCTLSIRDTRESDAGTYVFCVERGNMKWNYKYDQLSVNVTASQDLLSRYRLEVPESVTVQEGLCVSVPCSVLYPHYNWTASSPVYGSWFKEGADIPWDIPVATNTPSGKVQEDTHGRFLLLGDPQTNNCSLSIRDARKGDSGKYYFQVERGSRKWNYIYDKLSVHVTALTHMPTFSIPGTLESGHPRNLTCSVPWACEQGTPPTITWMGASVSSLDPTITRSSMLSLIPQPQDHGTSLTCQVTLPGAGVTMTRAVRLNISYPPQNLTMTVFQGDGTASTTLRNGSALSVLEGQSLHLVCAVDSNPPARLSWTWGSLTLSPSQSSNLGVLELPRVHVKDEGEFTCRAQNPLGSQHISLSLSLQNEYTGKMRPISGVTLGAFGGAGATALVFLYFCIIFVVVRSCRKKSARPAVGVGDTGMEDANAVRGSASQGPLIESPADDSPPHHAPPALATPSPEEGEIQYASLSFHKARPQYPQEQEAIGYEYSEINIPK

[4] = molecular target: siglec6 with C-terminal FLAG tag on Expi 293 cells (UniProt O43699); assay: flow cytometry, transfected Expi 293, 500 nM
siglec6 with C-terminal FLAG tag on Expi 293 cells, sequence (O43699 27-453 limits assumed): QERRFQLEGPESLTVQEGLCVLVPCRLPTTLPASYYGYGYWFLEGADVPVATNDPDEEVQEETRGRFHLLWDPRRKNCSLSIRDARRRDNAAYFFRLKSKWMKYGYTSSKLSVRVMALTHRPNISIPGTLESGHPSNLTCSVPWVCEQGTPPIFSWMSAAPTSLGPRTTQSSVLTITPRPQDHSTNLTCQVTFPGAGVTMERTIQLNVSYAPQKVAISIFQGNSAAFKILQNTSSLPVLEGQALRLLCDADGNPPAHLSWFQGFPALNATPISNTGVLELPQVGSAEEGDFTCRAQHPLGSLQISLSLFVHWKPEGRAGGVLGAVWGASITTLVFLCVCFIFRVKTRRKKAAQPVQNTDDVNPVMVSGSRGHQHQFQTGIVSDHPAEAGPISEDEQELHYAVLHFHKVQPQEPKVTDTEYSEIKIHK

Row | Flow % Gated (human siglec12 (human) [1]) [%] | Flow Fluor MFI (human siglec12 (human) [1]) | % Internalization at 2 hours, U937 cells (human siglec12 (human) [2]) [%] | MFI of pH sensitive dye, Siglec12 complexes, 0 hours (human siglec12 (human) [2]) | MFI of pH sensitive dye, Siglec12 complexes, 4 hours (human siglec12 (human) [2]) | MFI of pH sensitive dye, Siglec12 complexes, 24 hours (human siglec12 (human) [2]) | Siglec12 % surface expression, 0 min (human siglec12 (human) [2]) [%] | Siglec12 % surface expression, 15 min (human siglec12 (human) [2]) [%] | Siglec12 % surface expression, 30 min (human siglec12 (human) [2]) [%] | Siglec12 % surface expression, 45 min (human siglec12 (human) [2]) [%] | Siglec12 % surface expression, 60 min (human siglec12 (human) [2]) [%] | Siglec12 % surface expression, 90 min (human siglec12 (human) [2]) [%] | Siglec12 % surface expression, 120 min (human siglec12 (human) [2]) [%] | MFI [3] | MFI [4] | Binder
1 | 79 | 368 | 58 | 20 | 24.7 | 26.5 | 100 | 96 | 84 | 73 | 65 | 47 | 40 | 912 | 29.8 | B1
2 | 3 | 93 | 32 | – | – | – | – | – | – | – | – | – | – | 484 | 29.3 | B2
3 | 4 | 107 | 66 | – | – | – | – | – | – | – | – | – | – | 538 | 25.7 | B3
4 | 6 | 111 | – | – | – | – | – | – | – | – | – | – | – | – | – | B4
5 | 2 | 97 | – | – | – | – | – | – | – | – | – | – | – | – | – | B5

— patent US20250019432A1
